Experimental data reported in publication PMC6988801, “Characterization of a Dimeric Arginase From Zymomonas mobilis ZM4” (Frontiers in Microbiology, 2019).
Blank lines part the entries; values can stand above or below the molecule they belong to.

How the values were obtained:
zmARG = target: T1, zmARG (Zymomonas mobilis, UniProt Q5NQE9); assay: arginase activity assay kit, urea colorimetric at […] nm; format: biochemical; conditions: read-out: % inhibition at 5 mM
T1 construct: gene ZMO0432; full length Met1-Lys290; E. coli BL21(DE3) Star, pSKB3, N-terminal His6 with TEV site (25 extra residues); GH left after cleavage; EDTA-dialysed; dimer 64 kDa

[1] = target: the molecule itself; assay: AF4-MALS; asymmetrical flow field-flow fractionation with multi-angle light scattering; Eclipse DUALTEC AF4, DAWN Heleos II 18-angle MALS; Zimm model
purified protein = substrate: N=C(N)NCCC[C@H](N)C(=O)O; assay: purified protein; format: biochemical, Zymomonas mobilis; conditions: Mn-dependent enzyme; metal, pH and temperature of the kinetic run not given

- inhibition at 5000 µM (zmARG): ~95%
Molecule: N[C@@H](CCCCB(O)O)C(=O)O [ABH, 2(S)-amino-6-boronohexanoic acid]

B1: arginase from Zymomonas mobilis ZM4 (zmARG) (enzyme, Zymomonas mobilis subsp. mobilis ZM4)
chain: GHMSSINKPLRLIFPQWQGGDNPPYYLGSQLLAWLSPDPKGAVEEVPVPKPTGEPLQEENGIVGRSILIDQLSEARQLIEKHTPDSLVVLGGDCLVSLAPFSWLLEKYKDKLGILWIDSHPDVQTPKEYKNAHAHVLGELMGNGDSDFTRTVKHPVSPQKIMIAGIHDPLPYEANFISEHKIQTCSPEQVRSGAQPVLDWIKNEKIEYLAIHIDLDVLDPHNFRSVLFAKPGRGQHDFGDVAEGKLNIPDVVKLANQAASISKAVGLTIAEHLPWDALNLKNMLEELPLIGK
notes: two additional amino acids left at the N-terminus after TEV cleavage of the vector-encoded His6 tag; arginase zmARG, product of the ZMO0432 gene of Zymomonas mobilis subsp. mobilis ZM4, Met1-Lys290, amplified from genomic DNA; Two zinc ions are modelled in the active site of each subunit in the crystal; A Se-Met substituted form (made in B834 (DE3)) was used for phasing only; also called ZMO0432 …
- stoichiometry N [1]: 2

B2: zmARG (Zymomonas mobilis subsp. mobilis ZM4 = ATCC 31821) (protein)
chain: MSSINKPLRLIFPQWQGGDNPPYYLGSQLLAWLSPDPKGAVEEVPVPKPTGEPLQEENGIVGRSILIDQLSEARQLIEKHTPDSLVVLGGDCLVSLAPFSWLLEKYKDKLGILWIDSHPDVQTPKEYKNAHAHVLGELMGNGDSDFTRTVKHPVSPQKIMIAGIHDPLPYEANFISEHKIQTCSPEQVRSGAQPVLDWIKNEKIEYLAIHIDLDVLDPHNFRSVLFAKPGRGQHDFGDVAEGKLNIPDVVKLANQAASISKAVGLTIAEHLPWDALNLKNMLEELPLIGK
notes: full length Met1-Lys290; E. coli BL21(DE3) Star, pSKB3, N-terminal His6 with TEV site (25 extra residues); GH left after cleavage; EDTA-dialysed; dimer 64 kDa
- Km (purified protein): 6.8 mM
- kcat (purified protein): 302 s^–1
